Assay results: patent publication US20080293916A1, “Hla-Binding Peptide, and Dna Fragment and Recombinant Vector Coding for Said Hla-Binding Peptide” (NEC CORPORATION, priority 2004, published 2008)
Ends that are not written are not given here.

B1: HLA-A24-binding peptide of SEQ ID NO 1 (WT1 peptide, SEQ NAME 356) (peptide)
peptide: DFKDCERRF
notes: Synthesised by the Fmoc solid-phase method, purity 95% or higher

Each molecule was assayed against T1, HLA-A24 molecule (product of the HLA-A*2402 gene) on C1R-A24 cells (human) (assay: reassociation on acid-stripped C1R-A24 cells with added beta2m, mAb 17A12 staining, flow cytometry). Settings: not given.
T1 construct: MHC class I molecule on cells; Emptied by acid treatment (pH 3.3, 30 s), then reassociated with added purified beta2m and the test peptide; also called HLA-A*2402 molecule; human HLA-A24 molecule

Point of comparison: SFIKQEPSW [HLA-A24-binding peptide of SEQ ID NO 6 (WT1 peptide, SEQ NAME 70)], “-log Kd” value 8.16 -log Kd (Kd in molar concentration). Against it:
- QYRIHTHGV [HLA-A24-binding peptide of SEQ ID NO 30 (WT1 peptide, SEQ NAME 285)] — lower, 5.62 -log Kd (Kd in molar concentration)
- ALLPAVPSL [HLA-A24-binding peptide of SEQ ID NO 2 (WT1 peptide, SEQ NAME 10)] — higher, 9.16 -log Kd (Kd in molar concentration)
- PPPPPHSFI [HLA-A24-binding peptide of SEQ ID NO 7 (WT1 peptide, SEQ NAME 64)] — lower, 4.4 -log Kd (Kd in molar concentration)
- YRIHTHGVF [HLA-A24-binding peptide of SEQ ID NO 3 (WT1 peptide, SEQ NAME 286)] — lower, 4.39 -log Kd (Kd in molar concentration)
- PPPPPPHSF [HLA-A24-binding peptide of SEQ ID NO 4 (WT1 peptide, SEQ NAME 63)] — lower, 4.4 -log Kd (Kd in molar concentration)
- NMTKLQLAL (also called NMTKLQLAL) [HLA-A24-binding peptide of SEQ ID NO 10 (WT1 peptide, SEQ NAME 441)] — lower, 6.38 -log Kd (Kd in molar concentration)
- B1 — lower, 4.4 -log Kd (Kd in molar concentration)
- ILCGAQYRI (also called ILOGAQYRI) [HLA-A24-binding peptide of SEQ ID NO 14 (WT1 peptide, SEQ NAME 280)] — lower, 5.9 -log Kd (Kd in molar concentration)
- DVRDLNALL [HLA-A24-binding peptide of SEQ ID NO 5 (WT1 peptide, SEQ NAME 4)] — lower, 4.45 -log Kd (Kd in molar concentration)
- NLYQMTSQL [HLA-A24-binding peptide of SEQ ID NO 29 (WT1 peptide, SEQ NAME 225)] — lower, 4.38 -log Kd (Kd in molar concentration)

The molecules below were run against HLA-A2 molecule, product of the HLA-A*0201 gene (Homo sapiens, UniProt P04439, D140Y/D185E/D98H/E176V/E277Q/G131W/G231S/I119V/I121R/I166T/I218V/L300P/L318F/N151K/N90K/P208A/P217A/Q86G/Q94H/R138H/R169H/T345S) (assay: Experiment of binding peptide to HLA-A2 molecule (JY cells, flow cytometer)). Settings: not given.
Method: (§1) <Experiment of Binding Peptide to HLA-A2 Molecule>
(§2) JY cells were first exposed to acidic conditions at a pH of 3.8 for 30 seconds, thus dissociating and removing a light chain β2m and an endogenous peptide, which were noncovalently associated with the HLA-A*0201 molecule. After neutralization, a reassociation experiment was carried out.
(§3) The above-mentioned JY cells and the purified β2m were added to stepped dilutions of peptide for which the binding ability would be measured, and incubation was carried out on ice for 4 hours. HLA-A*0201 molecules that had reassociated up to this point were stained using the associating type specific fluorescently-labeled monoclonal antibody BB7.2.
(§4) Subsequently, the amount of fluorescence per cell was measured using a flow cytometer and a dissociation constant Kd value in molar concentration was calculated by a published method (Udaka et al., Immunogenetics, 51, 816-828, 2000).

Point of comparison: NMTKLQLAL [compound 49], Kd 3.71 µM. Against it:
- ALLLRTPYS [compound 38] — within 1.5-fold, 4.69 µM
- ALLPAVPSL [compound 33] — 260-fold lower, 0.0143 µM
- GVFRGIQDV [compound 51] — 2.6-fold lower, 1.41 µM
- ILCGAQYRI [compound 40] — 2-fold higher, 7.51 µM
- NLGATLKGV [compound 31] — 2.2-fold higher, 8.17 µM
- NLYQMTSQL [compound 44] — 2.5-fold lower, 1.49 µM
- QQYSVPPPV [compound 39] — within 1.5-fold, 3.24 µM

Same assay, conditions: −log Kd value (Kd in molar concentration); HLA-A2, JY cells, on ice 4 hours; read-out: BINDING EXPERIMENT DATA (converted)

In the case of VAAGSSSSV [compound 43], the Kd is reported as 9.95 µM.

These molecules were tested against T2, HLA-A2 molecule (product of the HLA-A*0201 gene) on JY cells (human) (assay: reassociation on acid-stripped JY cells with added beta2m, mAb BB7.2 staining, flow cytometry). Settings: not given.
T2 construct: MHC class I molecule on cells; Emptied by acid treatment (pH 3.8, 30 s), then reassociated with added purified beta2m and the test peptide; also called HLA-A*0201 molecule; human HLA-A2 molecule

Point of comparison: ALLLRTPYS [HLA-A2-binding peptide of SEQ ID NO 38 (WT1 peptide, SEQ NAME 214)], “-log Kd” value 5.33 -log Kd (Kd in molar concentration). Against it:
- GVFRGIQDV [HLA-A2-binding peptide of SEQ ID NO 51 (WT1 peptide, SEQ NAME 292)] — higher, 5.85 -log Kd (Kd in molar concentration)
- VAAGSSSSV [HLA-A2-binding peptide of SEQ ID NO 43 (WT1 peptide, SEQ NAME 250)] — lower, 5 -log Kd (Kd in molar concentration)
- NLYQMTSQL [HLA-A2-binding peptide of SEQ ID NO 44 (WT1 peptide, SEQ NAME 225)] — higher, 5.83 -log Kd (Kd in molar concentration)
- QQYSVPPPV [HLA-A2-binding peptide of SEQ ID NO 39 (WT1 peptide, SEQ NAME 191)] — higher, 5.49 -log Kd (Kd in molar concentration)
- NLGATLKGV [HLA-A2-binding peptide of SEQ ID NO 31 (WT1 peptide, SEQ NAME 242)] — lower, 5.09 -log Kd (Kd in molar concentration)
- NMTKLQLAL (also called NMTKLQLAL) [HLA-A2-binding peptide of SEQ ID NO 49 (WT1 peptide, SEQ NAME 441)] — higher, 5.43 -log Kd (Kd in molar concentration)
- ALLPAVPSL [HLA-A2-binding peptide of SEQ ID NO 33 (WT1 peptide, SEQ NAME 10)] — higher, 7.84 -log Kd (Kd in molar concentration)
- ILCGAQYRI (also called ILOGAQYRI) [HLA-A2-binding peptide of SEQ ID NO 40 (WT1 peptide, SEQ NAME 280)] — lower, 5.12 -log Kd (Kd in molar concentration)

The molecules below were run on human HLA-A type molecule (assay: Binding experiment, result stated in words for HLA-A type molecule). Settings: not given.
Method: <Experiment of Binding Peptide to HLA-A24 Molecule>
The ability of a peptide to bind to an HLA-A24 molecule, which is a product of the HLA-A*2402 gene, was measured using C1R-A24 cells expressing the HLA-A24 molecule (cells prepared by Professor Masafumi Takiguchi, Kumamoto University being supplied with permission by Assistant Professor Masaki Yasukawa, Ehime University).
C1R-A24 cells were first exposed to acidic conditions at a pH of 3.3 for 30 seconds, thus dissociating and removing a light chain β2m, which is associated with HLA class I molecules in common, and an endogenous peptide originally bound to the HLA-A*2402 molecule. After neutralization, purified β2m was added to C1R-A24 cells, the obtained product was added to serial dilutions of a peptide, and incubated on ice for 4 hours. Staining was carried out using fluorescently labeled monoclonal antibody 17A12, which recognizes association (MHC-pep) of the three members, that is, HLA-A*2402 molecule, the peptide, and β2m, which had reassociated during the incubation.
Subsequently, the MHC-pep count per C1R-A24 cell (proportional to the strength of fluorescence of the above-mentioned fluorescent antibody) was quantitatively measured using an FACScan fluorescence-activated cell sorter (Becton Dickinson Biosciences). A binding dissociation constant Kd value between the HLA-A24 molecule and the peptide was calculated from the average strength of fluorescence per cell by a published method (Udaka et al., Immunogenetics, 51, 816-828, 2000).
as §1, §2, §3, §4

ALLPAVPSL [compound 2] was tested, and the “binding to a human HLA-A type molecule (in words)” value (“binding” for short) was “experimentally confirmed to bind”.
In the case of DFKDCERRF [compound 1], the “binding” value is reported as “experimentally confirmed to bind”.
For DVRDLNALL [compound 5], the “binding” value was “experimentally confirmed to bind”.
ILCGAQYRI [compound 14] was tested, and the “binding” value was “experimentally confirmed to bind”.
With NLYQMTSQL [compound 29] the “binding” value was “experimentally confirmed to bind”.
For NMTKLQLAL [compound 10], the “binding” value was “experimentally confirmed to bind”.
With PPPPPHSFI [compound 7] the “binding” value was “experimentally confirmed to bind”.
PPPPPPHSF [compound 4] was tested, and the “binding” value was “experimentally confirmed to bind”.
QYRIHTHGV [compound 30] was tested, and the “binding” value was “experimentally confirmed to bind”.
In the case of SFIKQEPSW [compound 6], the “binding” value is reported as “experimentally confirmed to bind”.
For YRIHTHGVF [compound 3], the “binding” value was “experimentally confirmed to bind”.
